Source: PMC11289882, “Site-directed allostery perturbation to probe the negative regulation of hypoxia inducible factor-1α” (RSC Chemical Biology, 2024)

Columns and labels:
[1] = target: CITED2 218-256 218-256 (Homo sapiens) (UniProt Q99967); assay: ITC
[2] = target: CITED2ΔN 224-256 (Homo sapiens) (UniProt Q99967); assay: ITC
[3] = target: Flu-HIF-1α 786-826 (Homo sapiens) (UniProt Q16665); assay: anisotropy
[4] = target: CITED2 218-256 218-256 (Homo sapiens) (UniProt Q99967); assay: fluorescence anisotropy competition
[5] = target: CITED2ΔN 224-256 (Homo sapiens) (UniProt Q99967); assay: fluorescence anisotropy competition

Sequence of p300 TAZ1 330-420, Q09472 (Q09472 330-420): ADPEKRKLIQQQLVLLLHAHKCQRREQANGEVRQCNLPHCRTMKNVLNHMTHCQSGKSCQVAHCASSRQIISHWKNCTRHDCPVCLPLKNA
Sequence of CITED2 218-256 218-256 (Homo sapiens) (Q99967 218-256): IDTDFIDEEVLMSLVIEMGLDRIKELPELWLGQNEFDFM
Sequence of CITED2ΔN 224-256 (Homo sapiens) (Q99967 224-256, stated change not applied): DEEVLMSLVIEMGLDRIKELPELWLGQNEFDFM
Sequence of Flu-HIF-1α 786-826 (Homo sapiens) (Q16665 786-826): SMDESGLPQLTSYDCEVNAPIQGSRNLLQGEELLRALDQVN

Substance: p300 TAZ1 330-420, Q09472
- Kd [1]: 10.6 nM
- Kd [2]: 50.5 nM
- Kd [3]: 64 nM
- Kd [4]: 2 nM
- Kd [5]: 86 nM
